EC50 and IC50 data for 11 molecules are collected here from patent publication US20240116985A1, “STAPLED PEPTIDES AND METHODS THEREOF” (priority 2020, published 2024).

Starred links: 1 amine or outer side, 2 acyl side, 3 side chain; linkers in the order of their positions; H or OH if unused. Positions of bridges follow the written chain, without caps; N, C: chain ends. Non-standard residues stand in square brackets, D forms with d. Primed or numbered codes have the meaning given here. *: point of attachment. B5(10) = 2-amino-2-(pent-4-en-1-yl)hept-6-enoic acid, bis(4-pentenyl)glycine, stitching residue bearing both staples, C=CCCCC(CCCC=C)(N[*:1])C(=O)[*:2]; PyrS2″ = (S)-3-amino-1-((pent-4-en-1-yloxy)carbonyl)pyrrolidine-3-carboxylic acid (stapling residue), C=CCCCOC(=O)N1CC[C@@](N[*:1])(C(=O)[*:2])C1; B5(5) = 2,2-bis(4-pentenyl)glycine, 2-amino-2-(pent-4-en-1-yl)hept-6-enoic acid (stitching residue), C=CCCCC(CCCC=C)(N[*:1])C(=O)[*:2]; PyrS2 = (S)-3-amino-1-((pent-4-en-1-yloxy)carbonyl)pyrrolidine-3-carboxylic acid, C=CCCCOC(=O)N1CC[C@@](N[*:1])(C(=O)[*:2])C1; B5(12) = 2-amino-2-(pent-4-en-1-yl)hept-6-enoic acid (two olefin side chains), C=CCCCC(CCCC=C)(N[*:1])C(=O)[*:2]; B5(19) = 2-amino-2-(pent-4-en-1-yl)hept-6-enoic acid (bis(4-pentenyl)glycine), C=CCCCC(CCCC=C)(N[*:1])C(=O)[*:2]; B5(3) = 2,2-bis(4-pentenyl)glycine (stitching residue), C=CCCCC(CCCC=C)(N[*:1])C(=O)[*:2]; Phe(3-COOH) = N[C@@H](Cc1cccc(C(=O)O)c1)C(=O)O; Phe(2-Cl) = N[C@@H](Cc1ccccc1Cl)C(=O)O; Bta = N[C@@H](Cc1csc2ccccc12)C(=O)O; Lys(iPr) = CC(C)NCCCC[C@H](N)C(=O)O; αAllylPro = C=CC[C@@]1(C(=O)O)CCCN1; tBuAla = CC(C)(C)C[C@H](N)C(=O)O; 3Thi = N[C@@H](Cc1ccsc1)C(=O)O; Nle = CCCC[C@H](N)C(=O)O; iPr = CC(C)*

B1: I-1405 (peptide)
peptide: Ac-[αAllylPro]D[Nle][B5(12)]DDAAF[Nle][PyrS2″]F[Bta]Q-NH2
modifications: staple 1-4, 4-11
B2: I-1401 (peptide)
peptide: Ac-[αAllylPro]D[Nle][B5(19)]DDAAF[Nle][PyrS2][3Thi][Bta]Q-NH2
modifications: staple 1-4, 4-11
B3: I-1407 (peptide)
peptide: Ac-[αAllylPro]DL[B5(12)]D[Phe(3-COOH)]AAF[Nle][PyrS2″][3Thi][Bta]Q-NH2
modifications: staple 1-4, 4-11
B4: I-1404 (peptide)
peptide: Ac-[αAllylPro]DL[B5(12)]DDAAF[Nle][PyrS2″]F[Bta]Q-NH2
modifications: staple 1-4, 4-11
B5: I-1406 (peptide)
peptide: Ac-[αAllylPro]DL[B5(12)]D[Phe(3-COOH)]AAFL[PyrS2″][3Thi][Bta]Q-NH2
modifications: staple 1-4, 4-11
B6: I-1281 (peptide)
peptide: Ac-[αAllylPro]D[tBuAla][B5(5)]DEAAFK(iPr)[PyrS2][Phe(2-Cl)][Bta]Q-NH2
modifications: staple 1-4, 4-11
B7: I-1275 (peptide)
peptide: Ac-[αAllylPro]D[tBuAla][B5(3)]DDK(iPr)AFL[PyrS2″][Phe(2-Cl)][Bta]Q-NH2
modifications: staple 1-4, 4-11
B8: I-1280 (peptide)
peptide: Ac-[αAllylPro]D[tBuAla][B5(5)]DDAAFK(iPr)[PyrS2][Phe(2-Cl)][Bta]L-NH2
modifications: staple 1-4, 4-11
B9: I-1282 (peptide)
peptide: Ac-[αAllylPro]D[tBuAla][B5(5)]DEAAFK(iPr)[PyrS2][Phe(2-Cl)][Bta]T-NH2
modifications: staple 1-4, 4-11
B10: I-1279 (peptide)
peptide: Ac-[αAllylPro]D[tBuAla][B5(5)]DDAAFK(iPr)[PyrS2][Phe(2-Cl)][Bta]T-NH2
modifications: staple 1-4, 4-11
B11: I-1283 (peptide)
peptide: Ac-[αAllylPro]D[tBuAla][B5(5)]DEAAFK(iPr)[PyrS2][Phe(2-Cl)][Bta]L-NH2
modifications: staple 1-4, 4-11

Chain of Bcat-Halo (P35222 whole entry): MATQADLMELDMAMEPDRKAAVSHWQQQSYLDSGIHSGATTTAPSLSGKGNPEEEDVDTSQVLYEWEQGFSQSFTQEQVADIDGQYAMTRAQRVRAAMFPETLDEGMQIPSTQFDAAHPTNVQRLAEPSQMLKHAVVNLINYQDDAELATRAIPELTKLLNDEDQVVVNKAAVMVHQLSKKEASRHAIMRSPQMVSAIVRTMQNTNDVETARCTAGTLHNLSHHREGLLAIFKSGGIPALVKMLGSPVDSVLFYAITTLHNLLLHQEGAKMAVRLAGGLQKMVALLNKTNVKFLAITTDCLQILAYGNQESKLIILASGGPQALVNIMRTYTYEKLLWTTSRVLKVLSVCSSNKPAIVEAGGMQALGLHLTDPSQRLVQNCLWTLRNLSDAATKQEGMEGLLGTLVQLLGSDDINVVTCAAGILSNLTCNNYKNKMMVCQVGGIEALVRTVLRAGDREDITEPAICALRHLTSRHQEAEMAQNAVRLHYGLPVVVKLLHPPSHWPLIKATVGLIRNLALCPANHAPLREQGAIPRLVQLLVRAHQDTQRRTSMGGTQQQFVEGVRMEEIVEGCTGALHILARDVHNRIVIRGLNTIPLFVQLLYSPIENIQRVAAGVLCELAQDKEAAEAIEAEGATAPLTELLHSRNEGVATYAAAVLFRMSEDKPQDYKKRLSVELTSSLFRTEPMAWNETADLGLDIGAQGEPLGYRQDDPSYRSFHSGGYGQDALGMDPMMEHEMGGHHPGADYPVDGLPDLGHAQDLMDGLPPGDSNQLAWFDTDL
Chain of Bcat-Halo (beta-catenin HaloTag construct expressed in HEK293 cells) (P35222 whole entry): as above

In the first assay the target is beta-catenin (Homo sapiens (Human)) (UniProt P35222). The experiment in a line: fluorescence polarization competition; full-length beta-catenin with 5FAM-TCF4(10-53) probe as competitor.
Chain of beta-catenin (Homo sapiens (Human)) (P35222 whole entry): as above
Take B1: the EC50 was 9 nM.

In the case of B2, the EC50 was 5 nM.

As for B3, the EC50 was 5 nM.

B4 had a half-maximal effective concentration (EC50) of 113 nM.

In turn, B5 had an EC50 of 6 nM.

In a further assay the target is full-length beta-Catenin (Uniprot ID P35222) (Homo sapiens (Human)) (UniProt P35222). The experiment in a line: fluorescence polarization competition against 5FAM-TCF4(10-53) on full-length beta-catenin.
Target sequence in this assay (P35222 whole entry, one chain of several): as the sequence (P35222 whole entry) above
With B6, the IC50 is 10 nM.

Turning to B7, the IC50 came out at 9 nM.

Molecule B8 registered an IC50 of 22 nM.

B9 returned an IC50 of 34 nM.

For the molecule B10, the IC50 turned out to be 12 nM.

Molecule B11 yielded an IC50 of 26 nM.

Another assay shares this target. The experiment in a line: fluorescence polarization competition; full-length beta-catenin, competitor 5FAM-TCF4 10-53 probe.
Target sequence in this assay (P35222 2-781 limits assumed): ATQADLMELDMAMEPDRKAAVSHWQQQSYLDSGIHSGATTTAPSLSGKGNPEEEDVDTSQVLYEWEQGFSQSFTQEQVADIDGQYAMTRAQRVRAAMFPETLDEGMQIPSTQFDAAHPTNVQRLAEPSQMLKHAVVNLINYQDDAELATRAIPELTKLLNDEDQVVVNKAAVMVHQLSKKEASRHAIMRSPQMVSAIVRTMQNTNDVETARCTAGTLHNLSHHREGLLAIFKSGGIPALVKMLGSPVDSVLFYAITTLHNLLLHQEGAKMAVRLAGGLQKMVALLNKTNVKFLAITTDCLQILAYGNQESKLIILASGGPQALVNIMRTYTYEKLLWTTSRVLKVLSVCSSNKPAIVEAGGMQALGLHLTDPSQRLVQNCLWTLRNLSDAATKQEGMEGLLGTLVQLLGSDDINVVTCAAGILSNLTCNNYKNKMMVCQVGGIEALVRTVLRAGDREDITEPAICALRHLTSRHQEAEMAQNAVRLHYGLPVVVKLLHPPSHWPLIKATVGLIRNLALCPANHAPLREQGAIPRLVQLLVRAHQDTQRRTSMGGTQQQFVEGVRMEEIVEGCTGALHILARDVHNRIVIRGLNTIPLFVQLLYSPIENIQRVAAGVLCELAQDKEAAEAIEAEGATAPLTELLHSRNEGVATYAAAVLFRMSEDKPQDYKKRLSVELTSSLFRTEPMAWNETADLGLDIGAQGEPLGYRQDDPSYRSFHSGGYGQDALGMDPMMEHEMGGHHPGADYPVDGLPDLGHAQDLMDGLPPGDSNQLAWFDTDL
B1: the IC50 is 9 nM. In other words, the single-digit nanomolar range.

The molecule B2 returned an IC50 of 5 nM.

Molecule B3 yielded an IC50 of 5 nM.

In turn, B4 registered an IC50 of 113 nM.

Consider B5, for which the IC50 was 6 nM.

Another assay has as its target Bcat-Halo (beta-catenin HaloTag construct expressed in HEK293 cells) (UniProt P35222). As to the kind of experiment: NanoBRET Abs IC50 in HEK293 cells; B-cat-Halo with competitor TCF4-Luc.
As for B1, the IC50 came out at 40100 nM.

Turning to B2, the IC50 amounted to 21400 nM.

In turn, B3 yielded an IC50 of 4200 nM. Compared with the last molecule, the IC50 is about 5.1-fold lower.

B4 showed an IC50 of 36800 nM.

B5 showed an IC50 of 5000 nM.

For the next assay, the target named is full-length beta-Catenin (Uniprot ID P35222) (Homo sapiens (Human)) (UniProt P35222). The experiment in a line: fluorescence polarization competition; full-length beta-catenin + 5FAM-TCF4(10-53) probe.
Target sequence in this assay (P35222 whole entry, one chain of several): as the sequence (P35222 whole entry) above
In the case of B6, the EC50 amounted to 10 nM.

For B7, the EC50 came to 9 nM.

In the case of B8, the EC50 turned out to be 22 nM.

Consider B9, for which the 50% effective concentration (EC50) was 34 nM.

B10: the EC50 was found to be 12 nM.

On to B11, for which the EC50 was 26 nM.

The next assay addresses Bcat-Halo (UniProt P35222). As to the kind of experiment: NanoBRET Abs IC50, HEK293 cells, Bcat-Halo/TCF4-Luc; competitor TCF4-Luc.
The molecule B6 had an IC50 of 22200 nM.

B7 registered an IC50 of 27800 nM.

In turn, B8 returned an IC50 of 24700 nM.

Regarding B9, the IC50 turned out to be 43100 nM. This IC50 is about 1.7-fold higher than that of the molecule before.

The molecule B10 had an IC50 of 22900 nM.

Molecule B11 registered an IC50 of 38600 nM.
